± gives the uncertainty stated by the source.
Test: self-splicing fitness, log relative to wild type (ln ratio); higher = more splicing; Tetrahymena group I intron in knt gene, E. coli kanamycin selection, DiMSum; sequences stand for … in CUCUCU…GGAGGGAAAAGUUAUCAGGCAUGCACCUGGUAGCUAGUCUUUAAACCAAUAGAUUGCAUCGGUUUAAAAGGCAAGACCGUCAAAUUGCGGGAAAGGGGUCAACAGCCGUUCAGUACCAAGUCUCAGGGGAAACUUUGAGAUGGCCUUGCAAAGGGUAUGGUAAUAAGCUGACGGACAUGGUCCUAACCACGCAGCCAAGUCCUAAGUCAACAGAUCUUCUGUUGAUAUGGAUGCAGUUCACAGACUAAAUGUCGGUCGGGGAAGAUGUAUUCUUCUCAUAAGAUAUAGUCGGACCUCUCCUUAAUGGGAGCUAGCGGAUGAAGUGAUGCAACACUGGAGCCGCUGGGAACUAAUUUGUAUGCGAAAGUAUAUUGAUUAGUUUUGGAGUACUCGUGGUCG
Outline: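 A randomised library covering all eight P1ex-region intron nucleotides was built with the intron in the knt kanamycin-resistance gene on pET-22b(+) and held in E. coli BL21(DE3). Cells were grown overnight at 37°C or 30°C on LB agar, with or without 25 μg/mL kanamycin, plus 100 μg/mL carbenicillin, 50 μM IPTG and 0.2% rhamnose, and pooled colonies were amplicon-sequenced on an Illumina HiSeq 2500. DiMSum fitness is the error-weighted combination of wild-type-normalised replicate fold changes, kanamycin versus none.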

Sequence	self-splicing fitness (ln) (30 °C)	self-splicing fitness (ln) (37 °C)
CGCUAGCAAUAUUACGGCAU	-1.89 ± 0.093	-0.622 ± 0.083
CGUUAGCAAUAUUACGUAAC	–	-2.3 ± 0.46
CAGCAGCAAUAUUACGUGGA	-3.09 ± 0.13	-1.84 ± 0.12
AACGAGCAAUAUUACGGAAU	-2.84 ± 0.24	-1.81 ± 0.22
UCAGAGCAAUAUUACGAUAU	–	-2.32 ± 0.33
UGAGAGCAAUAUUACGACGU	-2.66 ± 0.19	-1.78 ± 0.24
AAGGAGCAAUAUUACGGCCG	-1.99 ± 0.45	–
UAUGAGCAAUAUUACGCGAG	-2.87 ± 0.17	-0.834 ± 0.08
UUGAAGCAAUAUUACGGGAA	-0.195 ± 0.11	-0.634 ± 0.15
UUUUAGCAAUAUUACGCUGU	-3.26 ± 0.34	-1.98 ± 0.33
AUCCAGCAAUAUUACGGCUU	-0.0325 ± 0.076	0.438 ± 0.1
UAACAGCAAUAUUACGAUCC	–	-2.04 ± 0.42
AGGGAGCAAUAUUACGUAAA	-3.55 ± 0.31	-2.73 ± 0.44
CCCGAGCAAUAUUACGCCAC	-3.54 ± 0.26	-2.84 ± 0.31
UCCAAGCAAUAUUACGCCUG	-4.15 ± 0.42	-2.26 ± 0.27
ACGUAGCAAUAUUACGGCCG	-0.0843 ± 0.13	-0.11 ± 0.19
CUGCAGCAAUAUUACGCGAC	-2.19 ± 0.14	-0.91 ± 0.12
UAAAAGCAAUAUUACGCGAA	-2.23 ± 0.12	-0.719 ± 0.12
GCCCAGCAAUAUUACGGAUU	0.0408 ± 0.057	-0.0391 ± 0.08
UUUGAGCAAUAUUACGCGAG	-1.42 ± 0.15	-0.997 ± 0.2
UACUAGCAAUAUUACGAUCA	-1.21 ± 0.07	-0.774 ± 0.063
GAGCAGCAAUAUUACGGGUA	-3.4 ± 0.16	-2.36 ± 0.14
ACACAGCAAUAUUACGCACA	-1.16 ± 0.1	-0.111 ± 0.1
CUCGAGCAAUAUUACGUCAG	–	-0.401 ± 0.39
CGUAAGCAAUAUUACGGUGG	-1.48 ± 0.082	-1.25 ± 0.11

Sequence	self-splicing fitness (ln) (30 °C)	self-splicing fitness (ln) (37 °C)
UCCGAGCAAUAUUACGCUUC	–	-2.37 ± 0.35
UAAAAGCAAUAUUACGGAAU	-3.12 ± 0.17	-2.18 ± 0.2
CAACAGCAAUAUUACGUCCA	-1.75 ± 0.11	-1.35 ± 0.13
CCACAGCAAUAUUACGGGUU	-3.68 ± 0.16	-2.58 ± 0.21
UAGCAGCAAUAUUACGUAAC	-3.52 ± 0.19	-2.42 ± 0.21
AGAAAGCAAUAUUACGUGUG	-2.13 ± 0.081	-1.78 ± 0.095
GGAGAGCAAUAUUACGAUGU	-1.92 ± 0.15	-1.74 ± 0.28
AUCGAGCAAUAUUACGUGAU	–	-1.87 ± 0.43
GCUAAGCAAUAUUACGCGAG	-2.6 ± 0.13	-1.18 ± 0.14
CAUCAGCAAUAUUACGCACC	-3.56 ± 0.14	-1.61 ± 0.12
CGCUAGCAAUAUUACGCUAA	-1.93 ± 0.22	-1.53 ± 0.25
UGCUAGCAAUAUUACGUAUG	-1.1 ± 0.067	-0.309 ± 0.089
GAGGAGCAAUAUUACGUAUC	-4.63 ± 0.42	-2.74 ± 0.33
UACUAGCAAUAUUACGAUCG	0.0068 ± 0.092	0.387 ± 0.12
GCAGAGCAAUAUUACGAUCC	-2.13 ± 0.3	-0.288 ± 0.46
GCCUAGCAAUAUUACGUCAG	-2.36 ± 0.26	-0.81 ± 0.34
CCAGAGCAAUAUUACGUGUU	-3.64 ± 0.16	-2.88 ± 0.17
CAGUAGCAAUAUUACGUCCG	-0.245 ± 0.24	1.29 ± 0.42
UCUCAGCAAUAUUACGACCU	-1.84 ± 0.18	-0.921 ± 0.22
GAAUAGCAAUAUUACGGUCC	-2.78 ± 0.24	-0.862 ± 0.25
UAUAAGCAAUAUUACGUGCC	-3.05 ± 0.22	-1.44 ± 0.17
UUACAGCAAUAUUACGUCUA	-0.0634 ± 0.086	-0.0325 ± 0.079
CACUAGCAAUAUUACGGCGU	-1.8 ± 0.12	-0.74 ± 0.11
GGCGAGCAAUAUUACGACAC	-1.12 ± 0.19	-0.253 ± 0.26
CUAGAGCAAUAUUACGUUUC	-4.04 ± 0.31	-2.01 ± 0.28
